Article PMC8616923, “Initiation of cytosolic plant purine nucleotide catabolism involves a monospecific xanthosine monophosphate phosphatase” (Nature Communications, 2021)

Experiments:
[1] = target: T1, XMPP (C-terminal His-tagged full-length XMPP) (Arabidopsis thaliana, UniProt F4ISS8); experiment: EnzChek phosphate assay (MESG / purine nucleoside phosphorylase), initial rates; assay type: biochemical; details: 30 °C, pH 7.5 (50 mM Tris), 1.25 mM MgCl2
T1 construct: gene At2g32150; full-length (13 residues beyond Ser250), C-terminal His tag, expressed in E. coli, HisTrap purified; monomer
T1 sequence (F4ISS8 1-263): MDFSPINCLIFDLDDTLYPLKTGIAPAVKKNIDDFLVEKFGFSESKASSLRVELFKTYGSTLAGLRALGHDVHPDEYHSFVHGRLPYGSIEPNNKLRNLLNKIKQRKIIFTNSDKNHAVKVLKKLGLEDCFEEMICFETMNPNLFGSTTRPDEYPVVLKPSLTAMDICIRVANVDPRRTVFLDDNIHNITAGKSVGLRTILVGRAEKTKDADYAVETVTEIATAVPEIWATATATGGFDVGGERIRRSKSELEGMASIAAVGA

[2] = target: T1, XMPP (C-terminal His-tagged full-length XMPP); experiment: as above; assay type: biochemical; details: 30 °C, pH 7.5 (50 mM Tris), 1.25 mM MgCl2; remark: listed apart in the source
[3] = target: T2, XMPP (XMPP-HAStrep; SDTL1) (Arabidopsis thaliana, UniProt F4ISS8); experiment: inhibition of XMP hydrolysis (phosphate assay); assay type: biochemical; details: 10 μM XMP as substrate; 22 °C
T2 construct: gene At2g32150; monomer
T2 sequence (F4ISS8 1-263): T1 sequence (F4ISS8 1-263)

purified protein = substrate: O=c1[nH]c(=O)c2ncn([C@@H]3O[C@H](COP(=O)(O)O)[C@@H](O)[C@H]3O)c2[nH]1; experiment: purified protein; assay type: biochemical, Arabidopsis thaliana; details: 22 °C
[4] = substrate: O=c1[nH]c(=O)c2ncn([C@@H]3O[C@H](COP(=O)(O)O)[C@@H](O)[C@H]3O)c2[nH]1; experiment: EnzChek phosphate assay (MESG / purine nucleoside phosphorylase), initial rates; assay type: biochemical, Arabidopsis thaliana; details: 30 °C, pH 7.5 (50 mM Tris), 1.25 mM MgCl2
Method: EnzChek phosphate assay (MESG / purine nucleoside phosphorylase), initial rates on XMPP (C-terminal His-tagged full-length XMPP) | enzymatic activities and kinetic constants of XMPP variants were determined

O=c1[nH]c(=O)c2ncn([C@@H]3O[C@H](COP(=O)(O)O)[C@@H](O)[C@H]3O)c2[nH]1 [XMP] was tested. Which KM [1] did it give?
The KM was “hydrophobic residues Val28, Ile31, and Phe55 that shape the xanthine-binding pocket”.

What about the KM [2] of the same molecule?
The KM was “direct and indirect hydrogen bonds to Thr61, Lys29, and Arg51”.

How did the inhibition [3] turn out when O=c1[nH]c(=O)c2ncn([C@@H]3O[C@H](CO)[C@@H](O)[C@H]3O)c2[nH]1 [xanthosine] was run?
Its inhibition is “For XMPP, we confirmed an inhibition by xanthosine”.

B1: XMPP (XMPP-HAStrep; SDTL1) (Arabidopsis thaliana) (protein)
chain: T1 sequence (F4ISS8 1-263)
notes: monomer
For B1, which Km (purified protein) is on record?
Its Km is 3.9 ± 0.2 µM.

What about the kcat (purified protein) of the same molecule?
Its kcat is 9.2 ± 0.1 s⁻¹.

B2: XMPP (C-terminal His-tagged full-length XMPP) (Arabidopsis thaliana) (protein)
chain: T1 sequence (F4ISS8 1-263)
notes: full-length (13 residues beyond Ser250), C-terminal His tag, expressed in E. coli, HisTrap purified; monomer
B2 was tested. Which Km [4] did it give?
The Km was 8.1(0.8) μM.

And the kcat [4]?
The kcat was 16.5(0.33) s^-1.
